Assay results: patent publication US7205275 (dated 2007)
Primed or numbered codes have the meaning given here. Where no end group is shown, it is not given here. [ ]: non-standard residue; d: D form. Fc(3) = Fc: non-antigen-binding fragment of an antibody from proteolytic digestion of a whole antibody (vehicle); Fc(4) = non-antigen-binding fragment of an antibody (from proteolytic digestion of a whole antibody); Fc = immunoglobulin Fc domain fused to the peptide (peptibody); Fc(7) = Fc domain, peptide fused N- or C-terminal to it; Fc″ = Fc domain of the peptibody fusion

B1: Con1-2 (C) (peptide)
chain: M[Fc]GGGGGAQQTWDDPCMHILGPVTWRRCILE
modifications: not fully specified (bridges); cysteine pairing not given here; also: Fc fusion domain at position 2
B2: Con1-6 (C) (peptide)
chain: M[Fc]GGGGGAQGQDLRPCEDMFGCGTKDWYGLE
modifications: not fully specified (bridges); cysteine pairing not given here; also: Fc fusion domain at position 2

Biological target: T1, human Ang-2 (human, UniProt O15123)
T1 chain: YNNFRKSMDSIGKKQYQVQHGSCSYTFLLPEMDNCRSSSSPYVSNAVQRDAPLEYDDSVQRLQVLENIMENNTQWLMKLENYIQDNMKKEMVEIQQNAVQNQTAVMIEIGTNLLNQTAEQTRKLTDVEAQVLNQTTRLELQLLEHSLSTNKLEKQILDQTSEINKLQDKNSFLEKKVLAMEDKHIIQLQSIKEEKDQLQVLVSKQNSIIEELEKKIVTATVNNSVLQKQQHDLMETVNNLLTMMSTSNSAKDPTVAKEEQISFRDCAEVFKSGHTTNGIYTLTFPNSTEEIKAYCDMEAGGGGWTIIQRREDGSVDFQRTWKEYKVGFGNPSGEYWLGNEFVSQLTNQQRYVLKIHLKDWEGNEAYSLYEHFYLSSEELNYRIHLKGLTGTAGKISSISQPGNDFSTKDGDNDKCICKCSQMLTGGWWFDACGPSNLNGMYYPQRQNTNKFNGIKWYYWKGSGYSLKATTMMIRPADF
Experiment: competition ELISA vs Tie-2

**Q.** For M[Fc(4)]GGGGGAQLRHQEGCEWDPWTCEHMFDWLE (not fully specified; cysteine pairing not given here) [Con4-42 (C)], which IC50 is on record?
**A.** Its IC50 is 0.17 nM.

**Q.** How did the IC50 turn out when M[Fc(7)]GGGGGAQNRLQEVCEWDPWTCEHMENVLE (not fully specified (bridges); cysteine pairing not given here) [Con4-31 (C)] was run?
**A.** The IC50 was 0.16 nM.

**Q.** For M[Fc(7)]GGGGGAQRPEDMCSQWDPWTWHLQGYCLE (not fully specified (bridges); cysteine pairing not given here) [Con4-26 (C)], which IC50 is on record?
**A.** Its IC50 is over 1000 nM.

**Q.** How did the IC50 turn out when M[Fc(7)]GGGGGAQTQGLHQCEWDPWTCKVLWPSLE (not fully specified (bridges); cysteine pairing not given here) [Con4-10 (C)] was run?
**A.** The IC50 was 86.6 nM.

**Q.** With M[Fc(7)]GGGGGAQMGGAGRCEWDPWTCQLLQGWLE (not fully specified (bridges); cysteine pairing not given here) [Con4-13 (C)] as the binder, how does the IC50 read?
**A.** Its IC50 is over 1000 nM.

**Q.** M[Fc(7)]GGGGGAQTKGKSVCQWDPWTCSHMQSGLE (not fully specified (bridges); cysteine pairing not given here) [Con4-21 (C)] was tested. Which IC50 did it give?
**A.** The IC50 was 3.21 nM.

**Q.** Which IC50 does the source give for M[Fc(4)]GGGGGAQSISHEECEWDPWTCEHMQVGLE (not fully specified; cysteine pairing not given here) [Con4-43 (C)] here?
**A.** Its IC50 is 0.18 nM.

**Q.** M[Fc(7)]GGGGGAQGPRISTCQWDPWTCEHMDQLLE (not fully specified (bridges); cysteine pairing not given here) [Con4-17 (C)] was tested. Which IC50 did it give?
**A.** Its IC50 is 0.96 nM.

**Q.** M[Fc(4)]GGGGGAQTTIGSMCEWDPWTCAHMQGGLE (not fully specified (bridges); cysteine pairing not given here) [Con4-C1 (C)] was tested. Which IC50 did it give?
**A.** Its IC50 is 2.75 nM.

**Q.** Which IC50 does the source give for M[Fc(4)]GGGGGAQQHWQEECEWDPWTCDHMPSKLE (not fully specified; cysteine pairing not given here) [Con4-46 (C)] here?
**A.** Its IC50 is 0.26 nM.

**Q.** How did the IC50 turn out when M[Fc(4)]GGGGGAQWAQQEECAWDPWTCDHMVGLLE (not fully specified; cysteine pairing not given here) [Con4-45 (C)] was run?
**A.** Its IC50 is 0.48 nM.

**Q.** For M[Fc]GGGGGAQLPGQEDCEWDPWTCEHMVRSLE (not fully specified; cysteine pairing not given here) [Con4-37 (C)], which IC50 is on record?
**A.** The IC50 was 0.49 nM.

Biological target: T1, human Ang-2
Experiment: competition ELISA vs Tie-2
Remark: another data set of the same source

**Q.** Which IC50 does the source give for MGAQSKFKPLDELEQTLYEQWTLQHALEGGGGG-Fc [L1-9 (N)] here?
**A.** Its IC50 is 1.62 nM.

**Q.** For MGAQVKYKPLDELDEWLYHQFTLHHQLEGGGGG[Fc(3)] [L1-17 (N)], which IC50 is on record?
**A.** The IC50 was 0.08 nM.

**Q.** Which IC50 does the source give for MGAQQKYQPLDELDKTLYDQFMLQQGLEGGGGG[Fc(3)] [L1-15 (N)] here?
**A.** Its IC50 is 0.04 nM.

**Q.** For MGAQTKFQPLDELDQTLYEQWTLQQRLEGGGGG-Fc [L1-C2 (N)], which IC50 is on record?
**A.** The IC50 was 0.05 nM.

**Q.** With B1 as the binder, how does the IC50 read?
**A.** The IC50 was over 1000 nM.

**Q.** For M[Fc(7)]GGGGGAQLQEWCEGVEDPFTFGCEKQRLE (not fully specified (bridges); cysteine pairing not given here) [12-9-3 (C)], which IC50 is on record?
**A.** The IC50 was 0.81 nM.

**Q.** How did the IC50 turn out when M[Fc(7)]GGGGGAQAQDYCEGMEDPFTFGCEMQKLE (not fully specified (bridges); cysteine pairing not given here) [12-9-4 (C)] was run?
**A.** Its IC50 is 2.05 nM.

**Q.** MGAQQKFQPLDELEETLYKQWTLQQRLEGGGGG[Fc(3)] [L1-16 (N)] was tested. Which IC50 did it give?
**A.** The IC50 was 0.11 nM.

**Q.** MGAQQEYEPLDELDETLYNQWMFHQRLEGGGGG[Fc(3)] [L1-13 (N)] was tested. Which IC50 did it give?
**A.** The IC50 was 0.05 nM.

**Q.** With MGAQYKFNPMDELEQTLYEEFLFQHALEGGGGG-{Fc″} [L1-22 (N)] as the binder, how does the IC50 read?
**A.** The IC50 was 0.09 nM.

**Q.** How did the IC50 turn out when MGAQYKFTPLDDLEQTLYEQWTLQHVLEGGGGG[Fc(3)] [L1-12 (N)] was run?
**A.** Its IC50 is 0.08 nM.

**Q.** How did the IC50 turn out when B2 was run?
**A.** The IC50 was 8.6 nM.

**Q.** With M[Fc(7)]GGGGGAQGFEYCDGMEDPFTFGCDKQTLE (not fully specified (bridges); cysteine pairing not given here) [12-9-1 (C)] as the binder, how does the IC50 read?
**A.** Its IC50 is 1.84 nM.

**Q.** For M[Fc(7)]GGGGGAQLQDYCEGVEDPFTFGCEKQRLE (not fully specified (bridges); cysteine pairing not given here) [12-9-C1 (C)], which IC50 is on record?
**A.** Its IC50 is 2.68 nM.

**Q.** With M[Fc(7)]GGGGGAQLQDYCEGVEDPFTFGCENQRLE (not fully specified (bridges); cysteine pairing not given here) [12-9-C2 (C)] as the binder, how does the IC50 read?
**A.** Its IC50 is 1.41 nM.

**Q.** With M[Fc(7)]GGGGGAQKLEYCDGMEDPFTQGCDNQSLE (not fully specified (bridges); cysteine pairing not given here) [12-9-2 (C)] as the binder, how does the IC50 read?
**A.** The IC50 was 8.42 nM.

**Q.** How did the IC50 turn out when MGAQTNFQPLDELDQTLYEQWTLQQRLEGGGGG-Fc [L1-C3 (N)] was run?
**A.** The IC50 was 0.06 nM.

**Q.** MGAQQKFKPLDELEQTLYEQWTLQQRLEGGGGG-Fc [L1-C1 (N)] was tested. Which IC50 did it give?
**A.** Its IC50 is 0.56 nM.

**Q.** How did the IC50 turn out when M[Fc(7)]GGGGGAQLLDYCEGVQDPFTFGCENLDLE (not fully specified (bridges); cysteine pairing not given here) [12-9-5 (C)] was run?
**A.** The IC50 was 1.56 nM.

**Q.** How did the IC50 turn out when M[Fc(7)]GGGGGAQFDYCEGVEDPFTFGCDNHLE (not fully specified (bridges); cysteine pairing not given here) [12-9 (C)] was run?
**A.** The IC50 was 15 nM.

**Q.** MGAQLNFTPLDELEQTLYEQWTLQQSLEGGGGG[Fc(3)] [L1-2 (N)] was tested. Which IC50 did it give?
**A.** The IC50 was 0.04 nM.

**Q.** How did the IC50 turn out when M[Fc(7)]GGGGGAQHQEYCEGMEDPFTFGCEYQGLE (not fully specified (bridges); cysteine pairing not given here) [12-9-6 (C)] was run?
**A.** The IC50 was 0.95 nM.

**Q.** How did the IC50 turn out when MGAQTNYKPLDELDATLYEHWILQHSLEGGGGG[Fc(7)] [AC6-L1 (N)] was run?
**A.** The IC50 was 0.03 nM.

**Q.** For MGAQQNFKPMDELEDTLYKQFLFQHSLEGGGGG[Fc(3)] [L1-11 (N)], which IC50 is on record?
**A.** The IC50 was 0.07 nM.

**Q.** With MGAQEDYMPLDALDAQLYEQFILLHGLEGGGGG-{Fc(3)} [L1-20 (N)] as the binder, how does the IC50 read?
**A.** Its IC50 is 0.09 nM.

**Q.** How did the IC50 turn out when MGAQVKFKPLDALEQTLYEHWMFQQALEGGGGG-Fc [L1-4 (N)] was run?
**A.** Its IC50 is 0.08 nM.

**Q.** For MGAQTKFNPLDELEQTLYEQWTLQHQLEGGGGG-{Fc″} [L1-3 (N)], which IC50 is on record?
**A.** Its IC50 is 0.16 nM.
